Key:
[1] = biological target: N-terminally truncated HPV-11 E1 (E1*, amino acids 72-649) (human papilloma virus type 11 (HPV-11)) (UniProt P04014); experiment: cell-based or functional assay
[2] = biological target: T1, HPV-11 E1 (330-649) fused to the GAL4 DNA-binding domain (BD) (human papilloma virus type 11 (HPV-11)); experiment: yeast two-hybrid, β-galactosidase activity (FIG. 1B)
T1 construct: also called larger E1 fragment (330-649)

[3] = biological target: the molecule itself; experiment: BMH cross-linking of 35S-labelled protein, immunoprecipitation, gel electrophoresis (FIG. 10)
[4] = biological target: the molecule itself; experiment: BMH cross-linking with ss DNA (FIG. 12B)
[5] = biological target: the molecule itself; experiment: BMH cross-linking of in-vitro translated truncated proteins (FIG. 11)

For “thioredoxin fusion protein TRX-E1 (353-431) (from UniProt P04014 353-431)”, the 50% inhibitory concentration for inhibition of the binding of E1* (72-649) to the origin [1] was 3 µM.

B1: C-terminal HPV-11 E1 fragment (amino acids 435-649) fused to the GAL4 activation domain (AD) (other)
chain: DSVGNWKPIVQFLRHQNIEFIPFLSKLKLWLHGTPKKNCIAIVGPPDTGKSCFCMSLIKFLGGTVISYVNSCSHFWLQPLTDAKVALLDDATQPCWTYMDTYMRNLLDGNPMSIDRKHRALTLIKCPPLLVTSNIDISKEEKYKYLHSRVTTFTFPNPFPFDRNGNAVYELSDANWKCFFERLSSSLDIEDSEDEEDGSNSQAFRCVPGSVVRTL
notes: also called E1 (435-649)
B1: no binding [2].

B2: N-terminally truncated HPV-11 E1 (E1*, amino acids 72-649) (enzyme)
chain: ADAHYATVQDLKRKYLGSPYVSPISNVANAVESEISPRLDAIKLTTQPKKVKRRLFETRELTDSGYGYSEVEAATQVEKHGDPENGGDGEERDTGRDIEGEGVEHREAEAVDDSTREHADTSGILELLKCKDIRSTLHGKFKDCFGLSFVDLIRPFKSDRTTCADWVVAGFGIHHSIADAFQKLIEPLSLYAHIQWLTNAWGMVLLVLIRFKVNKSRCTVARTLGTLLNIPENHMLIEPPKIQSGVAALYWFRTGISNASTVIGEAPEWITRQTVIEHSLADSQFKLTEMVQWAYDNDICEESEIAFEYAQRGDFDSNARAFLNSNMQAKYVKDCAIMCRHYKHAEMKKMSIKQWIKYRGTKVDSVGNWKPIVQFLRHQNIEFIPFLSKLKLWLHGTPKKNCIAIVGPPDTGKSCFCMSLIKFLGGTVISYVNSCSHFWLQPLTDAKVALLDDATQPCWTYMDTYMRNLLDGNPMSIDRKHRALTLIKCPPLLVTSNIDISKEEKYKYLHSRVTTFTFPNPFPFDRNGNAVYELSDANWKCFFERLSSSLDIEDSEDEEDGSNSQAFRCVPGSVVRTL
notes: Made by coupled in vitro transcription/translation in rabbit reticulocyte lysate; 35S-labelled in the cross-linking assay; Forms up to hexamers; also called E1 (72-649); E1* (72-649)
B2: binds [3].

B3: E1* (72-649) F509A (enzyme)
chain: ADAHYATVQDLKRKYLGSPYVSPISNVANAVESEISPRLDAIKLTTQPKKVKRRLFETRELTDSGYGYSEVEAATQVEKHGDPENGGDGEERDTGRDIEGEGVEHREAEAVDDSTREHADTSGILELLKCKDIRSTLHGKFKDCFGLSFVDLIRPFKSDRTTCADWVVAGFGIHHSIADAFQKLIEPLSLYAHIQWLTNAWGMVLLVLIRFKVNKSRCTVARTLGTLLNIPENHMLIEPPKIQSGVAALYWFRTGISNASTVIGEAPEWITRQTVIEHSLADSQFKLTEMVQWAYDNDICEESEIAFEYAQRGDFDSNARAFLNSNMQAKYVKDCAIMCRHYKHAEMKKMSIKQWIKYRGTKVDSVGNWKPIVQFLRHQNIEFIPFLSKLKLWLHGTPKKNCIAIVGPPDTGKSCFCMSLIKFLGGTVISYVNSCSHAWLQPLTDAKVALLDDATQPCWTYMDTYMRNLLDGNPMSIDRKHRALTLIKCPPLLVTSNIDISKEEKYKYLHSRVTTFTFPNPFPFDRNGNAVYELSDANWKCFFERLSSSLDIEDSEDEEDGSNSQAFRCVPGSVVRTL
B3: binds [4].

B4: truncated HPV-11 E1 (353-649) made by in-vitro translation (enzyme)
chain: DSQFKLTEMVQWAYDNDICEESEIAFEYAQRGDFDSNARAFLNSNMQAKYVKDCAIMCRHYKHAEMKKMSIKQWIKYRGTKVDSVGNWKPIVQFLRHQNIEFIPFLSKLKLWLHGTPKKNCIAIVGPPDTGKSCFCMSLIKFLGGTVISYVNSCSHFWLQPLTDAKVALLDDATQPCWTYMDTYMRNLLDGNPMSIDRKHRALTLIKCPPLLVTSNIDISKEEKYKYLHSRVTTFTFPNPFPFDRNGNAVYELSDANWKCFFERLSSSLDIEDSEDEEDGSNSQAFRCVPGSVVRTL
notes: also called residues 353-649 of E1
B4: binds [5].

B5: truncated HPV-11 E1 (330-649) made by in-vitro translation (enzyme)
chain: ASTVIGEAPEWITRQTVIEHSLADSQFKLTEMVQWAYDNDICEESEIAFEYAQRGDFDSNARAFLNSNMQAKYVKDCAIMCRHYKHAEMKKMSIKQWIKYRGTKVDSVGNWKPIVQFLRHQNIEFIPFLSKLKLWLHGTPKKNCIAIVGPPDTGKSCFCMSLIKFLGGTVISYVNSCSHFWLQPLTDAKVALLDDATQPCWTYMDTYMRNLLDGNPMSIDRKHRALTLIKCPPLLVTSNIDISKEEKYKYLHSRVTTFTFPNPFPFDRNGNAVYELSDANWKCFFERLSSSLDIEDSEDEEDGSNSQAFRCVPGSVVRTL
B5: binds [5].

B6: truncated HPV-11 E1 (191-649) made by in-vitro translation (enzyme)
chain: DTSGILELLKCKDIRSTLHGKFKDCFGLSFVDLIRPFKSDRTTCADWVVAGFGIHHSIADAFQKLIEPLSLYAHIQWLTNAWGMVLLVLIRFKVNKSRCTVARTLGTLLNIPENHMLIEPPKIQSGVAALYWFRTGISNASTVIGEAPEWITRQTVIEHSLADSQFKLTEMVQWAYDNDICEESEIAFEYAQRGDFDSNARAFLNSNMQAKYVKDCAIMCRHYKHAEMKKMSIKQWIKYRGTKVDSVGNWKPIVQFLRHQNIEFIPFLSKLKLWLHGTPKKNCIAIVGPPDTGKSCFCMSLIKFLGGTVISYVNSCSHFWLQPLTDAKVALLDDATQPCWTYMDTYMRNLLDGNPMSIDRKHRALTLIKCPPLLVTSNIDISKEEKYKYLHSRVTTFTFPNPFPFDRNGNAVYELSDANWKCFFERLSSSLDIEDSEDEEDGSNSQAFRCVPGSVVRTL
notes: also called E1 protein comprised of amino acids 191-649
B6: binds [5].
